From article PMC2928020 (The Journal of Cell Biology, 2010)
Where no end group is shown, it is not given here. The star is where a group is joined. FITC = O=C1OC2(c3ccc(O)cc3Oc3cc(O)ccc32)c2ccc(NC(=S)*)cc21

Biological target: SNX27 PDZ domain, wild type (residues 39-131 of rat SNX27) (rat, UniProt Q8K4V4 39-131)
Assay: fluorescence polarisation

B1: FITC-labeled peptide corresponding to the C-terminal six residues of the β2AR (TNDSLL) (peptide)
peptide: {FITC}-TNDSLL
  Kd: 17 ± 1.2 µM
